Biological target: Alpha2a adrenergic receptor-cam "chameleon" (mouse)
Assay: cell-based or functional assay

## purified Go protein
  Kd of the agonist [^3H]UK14304 on membranes containing α2AAR-cam after addition of purified Go: 3.4 nM
  Kd of the agonist [^3H]UK14304 on the same membranes with Go after addition of GTPγS: 9.6 nM
  reduction by GTPγS of the FRET signal caused by 5 nM UK14304 in the presence of Go: > 50%
  reduction by GTPγS of the binding of 5 nM [^3H]UK14304 in the presence of Go: > 50%
